Measured values reported in the nanobody polyreactivity screen of Harvey et al. (2022).

Test: yeast display, Sf9 membrane polyspecificity reagent, FACS + sequencing; frameworks hold sequencing errors
In short: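 A synthetic nanobody library was expressed on Saccharomyces cerevisiae BJ5465 by galactose induction for 36–48 hours. The library was stained for 1 hour at 4 °C with 10% biotinylated, detergent-solubilized Sf9 membrane reagent and enriched with streptavidin microbeads before FACS. Low and high (top ~1%) gates were set on anti-HA fluorescence for expression and streptavidin fluorescence for reagent binding, and each polyreactivity label reflects the gate of origin.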

| Sequence | polyreactivity (PSR sort gate) |
| --- | --- |
| QVQLVESCGGLVQAGGSLRLSCAASGLTFLAYDMGWYRQAPGKEREFVAAITGGGSTHYADSVKGRFTISRDNAKTTVYLQMNSLKTEDTAVYYCNADVYVYSVTSHYPSYRLDYWGQGTQVTVSS | high polyreactivity |
| QVQLVESGGSLVQAGGSLRLSCAATGRIFGPYAMGWYRQAPGKERELVATITWSGVSTYYADSVKGRFTLSRDNAKNTVYLQMNSLKPEDTAVYFCAADPQVIYRGFYQRDYWGQGTQVTVSS | low polyreactivity |
| QVQLVESGGGLVQAGGSLRLSCAASGRTFYGYDMGWYRQAPGKERELVATISSGGSTNYADSVKGRFTISRDNAKNTVYLQMHSLKPEDTAVYYCIARRFSGYRKGLRPYGSGMNYWGQGTQVTVSS | low polyreactivity |
| QVQLVESGGGLVQAGGSLRLSCAASGFTFPSYAMGWYRQAPGNERELVAVLSRRGGSTYYADSVKGRFTISRDNAKNTVYLQMNSLKPEDTAVYYCAADFRYYLTTRFNYWGQGTQVTVSS | high polyreactivity |
| QVQLVESGVGLVQAGGSLRLICAASGMTFDNYAMGWYRQAPGKERELVAAITSGDGTYYADSVKGRFTISRDNAKNTVYLQMNSLKPEDTAVFYCAVQGSRTENYDWYYYWGQGTQVTVSS | low polyreactivity |
| QVQLVESGGGLVQAGGSLRLSCAASGSILHLYAMGWYRQAPGKERELVARINSGGTTNYADSVKGRFTISRDNAKNTVYLQMNSLKPEDTAVYYCAARFTPYITSDVGHYDYWGQGTQVTVSS | low polyreactivity |
| QVQLVESGGGLVQAGGSLRLSCAASGYIFDVNTMGWYRQAPGKERELVAVIRRGGSTTYADSVKGRFTISRDNAKNTVYLQMNSLKPEDTAVYYCNARVTLGRPLFTYLVRYEYWGQGTQVTVSS | high polyreactivity |
| QDQLVESGGGLVQAGGSLRLSCAASGRTFYQYAMGWYRQAPGKERELVAAITFRGGSTNYADSVKGRFTISRDNAKNTVYLQMNSLKPEDTAVYYCAATVYGTVYKGRSQYEYGYWGQGTQVTVSS | high polyreactivity |
| QVQLVESGGGLVQAGGSLRLSCAASGRTFYAYTMGWYRTAPGKERELVAAITRRGGSTYYADSVKGRFTISRDNAKNTVYLQMNSLKPEDTAVYYCAASYSHRNYGLTYDYWGQGTQVTVSS | high polyreactivity |
| QVHLVESGGGLVQAGGSLRLSCAASGSIIKRNAMGWYRQAPGKERELVATISSGDGSTRYADSVKGRFTISRDNAKNTVYLQMNSLKPEDSAVYYCAAASAAGYDYWGQGTQVTVSS | low polyreactivity |
| QVQLVESGGGLVQAGGSLRLSCAASGRTFRWYAMGWYRQAPGKERELVASITWSGGSTYYADSVKGRFTISRDNAKNTVYLQMNSLKPEDTAVYYCAARDRRGAYYYWGQGTQVTVSS | high polyreactivity |
| QVQLVESGGGLVQAGGSLRLSCAAYGIIFYLYVMGWYRQAPGKERELVAVISYSGDDTYYADSVKGRFTISRDNAKNTVYLQMNSLKPEDTAVYYCAADYYYVYSSFGHYYWGQGTQVTVSS | low polyreactivity |
| QVKLVESGGGLVQAGGSLRLSCAASGLIFDTYAMGWYRQAHGKERELVADITLSGGSTYYADSLKGRFTISRDTAKNTVYLQMNSLKPVDTAVYYCAADSVSLFYWDQRYPDEYDYWGQGTQVTVSS | low polyreactivity |
| QVQVVESGGGLVQAGGTLRLSCAASGFILPHYTMGWYRQAPAKERELVAAITSGVSTYYADSVKGRFTISRDNAKNTVYLQMNSLKTEDTAVYYCNALATYIGYKYDYWGQGTQVTVSS | low polyreactivity |
| QVQLVESGGGLVKAAGSLRLSSAASGSIFSYNAMGWNRQAPGKERELVAAITFTAGNTYYADSVKGRFTISRDNAKNTVYLQMNILKPEDTAVYYCAATIQSYREDDNWGQGTQVTVSS | low polyreactivity |
| QVQLVESGGGLVQAGGSLRLSCAASGGTFGAYAMGWYRQAPGKERELVAAISGSGARTYYADSVKGRFTISRDNAKNTVYVQMNSLKPEDTAVYYCAARSTGTRVGEYDYWGQGTQVTVSS | high polyreactivity |
| QVQLVESGGGLVQAGGSLSLSFAASGRTFARYAMGWYRQAPGKEREFVAGINWSGGGTYYADSVKGRFTISRDNAKNTVYLQMNSLKTEDTAVYYCAAVPTNRYGYWGQGTQVTVSS | high polyreactivity |
| QVQLVESGGGLVQAGGSLRLSCAASGRTFAYNDRGWYRQATGKERELVAAISWSDGTTYYADSVKGRFTISRDNAKNTVYLQMYSLKPEDTAVYDCAAESYPAVVASYVSEFDYWGQGTQVPVSS | low polyreactivity |
| QVQLVESGGGVVQAGGSLRVRCAASGIIYFIDYAMGWYRQAPGKERELVAAITSGGSTNYADSVKGRFTISRDNAKYTVYLQKNRLKPEDTAVYYCAAYLYSGSQYYFWGQGTQVIVSS | high polyreactivity |
| QVQLVESGGGLVQAGGSLRLRCAASGNIFDDNAMGWYRQAPGKERELVAALTWTGGSTYYADSVKGRFTISRDNAKNTVYLQMNSLKAEYTAVYNCADYDYWGQGTQVTVSS | low polyreactivity |
| QVQLVESGGGLVQAGGSLRLSCAATGRIFGGYPMGWYRQAPGKERELVAVISGRGGSTYYADSVKGRFTISRDNAKNTVYLQMNSLIPEDTAVYYCAAVGYYAWTFGYDYWGQGTQVTVSS | high polyreactivity |
| QVQLVESGGGLVQAGGILRLSCAASGSIFAGYAMGWYRQAPGKERELVAVITWRTDITYADSVKGRFTISRDNAKNTDYLHMNSLKPDDTAVYYCAADSDSTTRLFGDEYWGQGTQVTVSS | low polyreactivity |

| Sequence | polyreactivity (PSR sort gate) |
| --- | --- |
| QVQLVESGGGLVQAGGSLRLSCAASGSTFFLYAMGWYRQAPGKERELVASITDGGSTNYADSVKGRFTISRDNAKNTVYLQMNSLKPEDTAVYYCAKDYIHFSHKYDYWGQGTQVTVSS | low polyreactivity |
| QVQLVESGGGLVQAGGSLRLSCAASGRTFPPYGMGWYRQAPGKERELVAAISKSSGSTNYADSVKGRFTISRDNAKNTVYLQMNSLKPEDTAVYYCNVDLYRWSKLAGAYRMDYWGQGTQVTVSS | low polyreactivity |
| QVQLGESGGGLVQAGGSVRLSCAASGSTFWVNAMGWYRQAPGKERELVAAISNSGGSTYYADSVKGRFTISRDNAKNTVYLQMNSLKPEDTAVYYCAAAGGVDYDYWGQGTQVTVSS | low polyreactivity |
| QFQLVESGGGLDQAGGSLRLSCAASGSIFYYNAMGWYRQAPGKERELVAAIDLNDGITYYADSVKGRFTISRDNAKNTVYLQMNSLKPEDTAVYYCAADSYYFLYDSWGQGTQVTVSS | high polyreactivity |
| QVQLVESGGGLVQAGGSLRLSCAASGLTLYRNAMGWYRPAPGKVRELVAAITKSGARTYYADSVKGRFTISRDNAKNTVYLQMNSLKPEDTAVYYCAADALNTYNYWGQGTQVTVSS | high polyreactivity |
| QVQLVESGGGLVQAGGSLRLSCAASGIIFAWYAMGWYRQAPGKERELVAAISYSGGTTYYADSVKGRFTISRDIAKNTVYLQMNSLKPEDTEVYYCAGRLHLFFSYDYWGQGTLVTVSS | low polyreactivity |
| QVQLVESGGGLVQAGGSLRLSCAASGFIFGYYAMGWYRQAPGKERELVAAISWNGGSTYYADSVKGRFTISRDNAKNTVYLQMNSLKPEDTAVYYCAADGYETYYDYDYWGQGTQVTVSS | high polyreactivity |
| QVQLVESGGGLVQAGGSLRLSWAASGLIFYDNMGWYRQAPGKERELVASISSSGGSTSYADSVKGRFTISRDNAKNTVYLQMNSLKPEDTAVYYCAAVRRGYKYVYWGQGTQVTVSS | low polyreactivity |
| QVQLVESGGGLVQAGGSLRLSCAASGSIFWYNAMGWYRQAPGKEREFVATITNGTTTNYADSVKGRFTISCDNAKNTVYLQMNSLKPEDTAVYFCAVTGVYVKYDYWGQGTHVTVSS | low polyreactivity |
| QVQLLESGGGLVQAGGSLRLSCKARGSILGDRMSWYRQAPVKEHELVATIYDGGITYYADSMKGRFTISRDNAKNTVYLQMNRLRPEDTAVYYCGASFEGYRYHVYCGQGTQVTVSS | low polyreactivity |
| QVQRVESGGGLVQAGGSLRLSCAASGRIFYFNAMGWYRQAPGKEWELVAVINSSGSTDYADSVKGRFTISRDNAKNTVYLQMNSLKPEDTAVYYCAAEVTPSGYGYWGQGTQVTVSS | low polyreactivity |
| QVQIVESGGGLVQAGGSLRLSCAASGFIFGIYDMGWYRQAPGKERELYADSVKGRFTISRDNAKNTVYLQMNSVKPEDTAVYYCNRAQGVHTYVYRYGYWGQGTQVTESS | low polyreactivity |
| QVQLVESGGGLVQAGGSLRLSCAASGFTFHVNTMGWYRQAPGKERELVAAISRSGGSTYYADSVKGRFTISRDNAKNTVYLQMNSLKPEDTAVYYCATPSPGYTYDPRTQEENDYWGQGTQVTVSS | low polyreactivity |
| QVQLVESGGGLVQAGGSLRLSCAASGFTFPYYAMGWSRQAPGKERELVAAITSSGTITYYADSVKGRFTISRDNAKNTVYLQMNSLKPEDTAVYYCAARFSSTRYLQWYYYWGQGTQVTVSS | high polyreactivity |
| QVQLVESGGGLVQAGGSLRLSCAASGRIFTGNVMGWYRQAPGKERELVAAITYRGGSTYYADSVKGRFTISRDNAKNTVYLQMNSLKPEDTAVYYCAAGYFLGHTYGGDYWGQGTQVTVSS | low polyreactivity |
| QVQLVESGGGLVQAGGSLRLSCAASGSIFTLYAMGWYRQAPGKERELVAAITWSGGSTYYADSVKGRFTISRDNAKNTVYLQMNSLKPEDTAVYFCAKDYLAGGPWEGHVEREYDYWGQGTQVTVSS | low polyreactivity |
| QFQLVESGGGLVQAGGSLRLSCAASGSIFYTYVMGWYRQAPGKERELVAVISWSSTSTYYADSVKGRFTISRDNAKNTVYLQMNSLKPEDTAVYYCAAGVHRYRPGHGYDDGGYYWGQGTQVTVSS | low polyreactivity |
| QVQLVESGGGLVQAEGSLRLSCAASGRTFRPYALGWYRQAPGKERELVAVITSGGRTDYADSVKGRFTISRDNAKNTVYLQMNSLKPEDTAVYYCNAGAVYWGYSRGWYERDYWGQGTQVTVSS | high polyreactivity |
| QVQLVESGGGLVQAGGSLRLSCAASGRTFSTNVMGWYRQAPGKERELVAAITTSSSRTYYADSVKGRFTISRDNAKNTVYLQMNSLKPEDTAVYYCAARIHGSWSFDYWGQCTQVTVSS | low polyreactivity |
| QVQLVESGGGLVQAGGSLRLSCAASGLIFWAYAMGWYRQAPGKERELVAAINWRGGSTYYADSVKGRFTISRDNAKNTVYLQMNSLKPEDTAVYYCAADSYYDEYDYCGQGTQVTVSS | low polyreactivity |
| QVQLVESGGGLFQAGGSLRLSCAASGFIFLLNAMGWYRQAPGKERELVAAINSDGSTNYADSVKGRFTISRDNAKNTFYLQMNSLKPEDTGVYYCAARSFTLRGYDYWGQGTQVTVSS | low polyreactivity |
